This is an account of results in FireProtDB (doi:10.1021/bi980431i).

By Tm is commonly meant the temperature at the midpoint of the melting transition.

For the series the following is noted: Homo sapiens; pH 2.7; Thermal; DSC; glycine 0.05 M; reversible: yes; whole UniProt chain shown.

B1: Lysozyme C wild type, P61626 (protein)
chain: MKALIVLGLVLLSVTVQGKVFERCELARTLKRLGMDGYRGISLANWMCLAKWESGYNTRATNYNAGDRSTDYGIFQINSRYWCNDGKTPGAVNACHLSCSALLQDNIADAVACAKRVVRDPQGIRAWVAWRNRCQNRDVRQYVQGCGV
With B1, the Tm stood at 64.9 °C, the “heat capacity change of unfolding” value is 1.58 kcal/mol/K, the “unfolding enthalpy (calorimetric)” value came out at 477 kJ/mol and the “unfolding enthalpy (van 't Hoff)” value was determined as 502 kJ/mol.
